Article PMC12817929

Biological target: HEV-ORF2 mutant lacking all three KFERQ-like motifs (ORF2ΔCMA) (hepatitis E virus genotype 3 (HEV-3), KernowC1-p6 strain)
Assay: co-IP; HEK-293T transfected with plasmids for HSC70 and GRP75 together with WT ORF2 or ORF2ΔCMA for 48 h, NP-40 lysis, IP with Mab-2G8, blots for HSC70 and GRP75

With “GRP75 expressed from plasmid in HEK-293T cells together with HSC70 and ORF2 (tag not stated) (from UniProt P38646 47-679) (natural protein)” the decrease of co-precipitated GRP75 against wild-type ORF2 was 50%.
